These results are taken from US20210388087A1 (Chugai, published 2021).

Sequences and labels used below:
B1: dBBDu183H G65Q/dBBDu072L (antibody, name in Kabat numbering, V domains shown)
VH: QVQLVESGGGLVQPGRSLRLSCAASGFTFSNAWMHWVRQAPGKGLEWVAQIKDKGNAYAAYYAPSVKQRFTISRDDSKNSIYLQMNSLKTEDTAVYYCHYVHYASASTVLPAFGVDAWGQGTTVTVSS
VL: DIVMTQSPLSLPVTPGEPASISCQASQELVHMNRNTYLHWYQQKPGQAPRLLIYKVSNRFPGVPDRFSGSGSGTDFTLKISRVEAEDVGVYYCAQGTSVPFTFGQGTKLEIK
B2: dBBDu183H G100hT/dBBDu072L (antibody, name in Kabat numbering, V domains shown)
VH: QVQLVESGGGLVQPGRSLRLSCAASGFTFSNAWMHWVRQAPGKGLEWVAQIKDKGNAYAAYYAPSVKGRFTISRDDSKNSIYLQMNSLKTEDTAVYYCHYVHYASASTVLPAFTVDAWGQGTTVTVSS
VL: DIVMTQSPLSLPVTPGEPASISCQASQELVHMNRNTYLHWYQQKPGQAPRLLIYKVSNRFPGVPDRFSGSGSGTDFTLKISRVEAEDVGVYYCAQGTSVPFTFGQGTKLEIK
B3: dBBDu183H G65T/dBBDu072L (antibody, name in Kabat numbering, V domains shown)
VH: QVQLVESGGGLVQPGRSLRLSCAASGFTFSNAWMHWVRQAPGKGLEWVAQIKDKGNAYAAYYAPSVKTRFTISRDDSKNSIYLQMNSLKTEDTAVYYCHYVHYASASTVLPAFGVDAWGQGTTVTVSS
VL: DIVMTQSPLSLPVTPGEPASISCQASQELVHMNRNTYLHWYQQKPGQAPRLLIYKVSNRFPGVPDRFSGSGSGTDFTLKISRVEAEDVGVYYCAQGTSVPFTFGQGTKLEIK
B4: dBBDu183H G65W/dBBDu072L (antibody, name in Kabat numbering, V domains shown)
VH: QVQLVESGGGLVQPGRSLRLSCAASGFTFSNAWMHWVRQAPGKGLEWVAQIKDKGNAYAAYYAPSVKWRFTISRDDSKNSIYLQMNSLKTEDTAVYYCHYVHYASASTVLPAFGVDAWGQGTTVTVSS
VL: DIVMTQSPLSLPVTPGEPASISCQASQELVHMNRNTYLHWYQQKPGQAPRLLIYKVSNRFPGVPDRFSGSGSGTDFTLKISRVEAEDVGVYYCAQGTSVPFTFGQGTKLEIK
B5: dBBDu183H G65S/dBBDu072L (antibody, name in Kabat numbering, V domains shown)
VH: QVQLVESGGGLVQPGRSLRLSCAASGFTFSNAWMHWVRQAPGKGLEWVAQIKDKGNAYAAYYAPSVKSRFTISRDDSKNSIYLQMNSLKTEDTAVYYCHYVHYASASTVLPAFGVDAWGQGTTVTVSS
VL: DIVMTQSPLSLPVTPGEPASISCQASQELVHMNRNTYLHWYQQKPGQAPRLLIYKVSNRFPGVPDRFSGSGSGTDFTLKISRVEAEDVGVYYCAQGTSVPFTFGQGTKLEIK
B6: dBBDu183H G100hH/dBBDu072L (antibody, name in Kabat numbering, V domains shown)
VH: QVQLVESGGGLVQPGRSLRLSCAASGFTFSNAWMHWVRQAPGKGLEWVAQIKDKGNAYAAYYAPSVKGRFTISRDDSKNSIYLQMNSLKTEDTAVYYCHYVHYASASTVLPAFHVDAWGQGTTVTVSS
VL: DIVMTQSPLSLPVTPGEPASISCQASQELVHMNRNTYLHWYQQKPGQAPRLLIYKVSNRFPGVPDRFSGSGSGTDFTLKISRVEAEDVGVYYCAQGTSVPFTFGQGTKLEIK
B7: dBBDu183H G100hV/dBBDu072L (antibody, name in Kabat numbering, V domains shown)
VH: QVQLVESGGGLVQPGRSLRLSCAASGFTFSNAWMHWVRQAPGKGLEWVAQIKDKGNAYAAYYAPSVKGRFTISRDDSKNSIYLQMNSLKTEDTAVYYCHYVHYASASTVLPAFVVDAWGQGTTVTVSS
VL: DIVMTQSPLSLPVTPGEPASISCQASQELVHMNRNTYLHWYQQKPGQAPRLLIYKVSNRFPGVPDRFSGSGSGTDFTLKISRVEAEDVGVYYCAQGTSVPFTFGQGTKLEIK
B8: dBBDu183H G100hS/dBBDu072L (antibody, name in Kabat numbering, V domains shown)
VH: QVQLVESGGGLVQPGRSLRLSCAASGFTFSNAWMHWVRQAPGKGLEWVAQIKDKGNAYAAYYAPSVKGRFTISRDDSKNSIYLQMNSLKTEDTAVYYCHYVHYASASTVLPAFSVDAWGQGTTVTVSS
VL: DIVMTQSPLSLPVTPGEPASISCQASQELVHMNRNTYLHWYQQKPGQAPRLLIYKVSNRFPGVPDRFSGSGSGTDFTLKISRVEAEDVGVYYCAQGTSVPFTFGQGTKLEIK
B9: dBBDu183H G100hD/dBBDu072L (antibody, name in Kabat numbering, V domains shown)
VH: QVQLVESGGGLVQPGRSLRLSCAASGFTFSNAWMHWVRQAPGKGLEWVAQIKDKGNAYAAYYAPSVKGRFTISRDDSKNSIYLQMNSLKTEDTAVYYCHYVHYASASTVLPAFDVDAWGQGTTVTVSS
VL: DIVMTQSPLSLPVTPGEPASISCQASQELVHMNRNTYLHWYQQKPGQAPRLLIYKVSNRFPGVPDRFSGSGSGTDFTLKISRVEAEDVGVYYCAQGTSVPFTFGQGTKLEIK
B10: dBBDu183H G100hW/dBBDu072L (antibody, name in Kabat numbering, V domains shown)
VH: QVQLVESGGGLVQPGRSLRLSCAASGFTFSNAWMHWVRQAPGKGLEWVAQIKDKGNAYAAYYAPSVKGRFTISRDDSKNSIYLQMNSLKTEDTAVYYCHYVHYASASTVLPAFWVDAWGQGTTVTVSS
VL: DIVMTQSPLSLPVTPGEPASISCQASQELVHMNRNTYLHWYQQKPGQAPRLLIYKVSNRFPGVPDRFSGSGSGTDFTLKISRVEAEDVGVYYCAQGTSVPFTFGQGTKLEIK
B11: dBBDu183H G100hY/dBBDu072L (antibody, name in Kabat numbering, V domains shown)
VH: QVQLVESGGGLVQPGRSLRLSCAASGFTFSNAWMHWVRQAPGKGLEWVAQIKDKGNAYAAYYAPSVKGRFTISRDDSKNSIYLQMNSLKTEDTAVYYCHYVHYASASTVLPAFYVDAWGQGTTVTVSS
VL: DIVMTQSPLSLPVTPGEPASISCQASQELVHMNRNTYLHWYQQKPGQAPRLLIYKVSNRFPGVPDRFSGSGSGTDFTLKISRVEAEDVGVYYCAQGTSVPFTFGQGTKLEIK
B12: dBBDu183H G100hN/dBBDu072L (antibody, name in Kabat numbering, V domains shown)
VH: QVQLVESGGGLVQPGRSLRLSCAASGFTFSNAWMHWVRQAPGKGLEWVAQIKDKGNAYAAYYAPSVKGRFTISRDDSKNSIYLQMNSLKTEDTAVYYCHYVHYASASTVLPAFNVDAWGQGTTVTVSS
VL: DIVMTQSPLSLPVTPGEPASISCQASQELVHMNRNTYLHWYQQKPGQAPRLLIYKVSNRFPGVPDRFSGSGSGTDFTLKISRVEAEDVGVYYCAQGTSVPFTFGQGTKLEIK
B13: dBBDu183H G100hK/dBBDu072L (antibody, name in Kabat numbering, V domains shown)
VH: QVQLVESGGGLVQPGRSLRLSCAASGFTFSNAWMHWVRQAPGKGLEWVAQIKDKGNAYAAYYAPSVKGRFTISRDDSKNSIYLQMNSLKTEDTAVYYCHYVHYASASTVLPAFKVDAWGQGTTVTVSS
VL: DIVMTQSPLSLPVTPGEPASISCQASQELVHMNRNTYLHWYQQKPGQAPRLLIYKVSNRFPGVPDRFSGSGSGTDFTLKISRVEAEDVGVYYCAQGTSVPFTFGQGTKLEIK
B14: dBBDu183H G65V/dBBDu072L (antibody, name in Kabat numbering, V domains shown)
VH: QVQLVESGGGLVQPGRSLRLSCAASGFTFSNAWMHWVRQAPGKGLEWVAQIKDKGNAYAAYYAPSVKVRFTISRDDSKNSIYLQMNSLKTEDTAVYYCHYVHYASASTVLPAFGVDAWGQGTTVTVSS
VL: DIVMTQSPLSLPVTPGEPASISCQASQELVHMNRNTYLHWYQQKPGQAPRLLIYKVSNRFPGVPDRFSGSGSGTDFTLKISRVEAEDVGVYYCAQGTSVPFTFGQGTKLEIK
B15: dBBDu183H G65Y/dBBDu072L (antibody, name in Kabat numbering, V domains shown)
VH: QVQLVESGGGLVQPGRSLRLSCAASGFTFSNAWMHWVRQAPGKGLEWVAQIKDKGNAYAAYYAPSVKYRFTISRDDSKNSIYLQMNSLKTEDTAVYYCHYVHYASASTVLPAFGVDAWGQGTTVTVSS
VL: DIVMTQSPLSLPVTPGEPASISCQASQELVHMNRNTYLHWYQQKPGQAPRLLIYKVSNRFPGVPDRFSGSGSGTDFTLKISRVEAEDVGVYYCAQGTSVPFTFGQGTKLEIK
B16: dBBDu183H G65R/dBBDu072L (antibody, name in Kabat numbering, V domains shown)
VH: QVQLVESGGGLVQPGRSLRLSCAASGFTFSNAWMHWVRQAPGKGLEWVAQIKDKGNAYAAYYAPSVKRRFTISRDDSKNSIYLQMNSLKTEDTAVYYCHYVHYASASTVLPAFGVDAWGQGTTVTVSS
VL: DIVMTQSPLSLPVTPGEPASISCQASQELVHMNRNTYLHWYQQKPGQAPRLLIYKVSNRFPGVPDRFSGSGSGTDFTLKISRVEAEDVGVYYCAQGTSVPFTFGQGTKLEIK
B17: dBBDu183H G100hF/dBBDu072L (antibody, name in Kabat numbering, V domains shown)
VH: QVQLVESGGGLVQPGRSLRLSCAASGFTFSNAWMHWVRQAPGKGLEWVAQIKDKGNAYAAYYAPSVKGRFTISRDDSKNSIYLQMNSLKTEDTAVYYCHYVHYASASTVLPAFFVDAWGQGTTVTVSS
VL: DIVMTQSPLSLPVTPGEPASISCQASQELVHMNRNTYLHWYQQKPGQAPRLLIYKVSNRFPGVPDRFSGSGSGTDFTLKISRVEAEDVGVYYCAQGTSVPFTFGQGTKLEIK
B18: dBBDu183H G100hQ/dBBDu072L (antibody, name in Kabat numbering, V domains shown)
VH: QVQLVESGGGLVQPGRSLRLSCAASGFTFSNAWMHWVRQAPGKGLEWVAQIKDKGNAYAAYYAPSVKGRFTISRDDSKNSIYLQMNSLKTEDTAVYYCHYVHYASASTVLPAFQVDAWGQGTTVTVSS
VL: DIVMTQSPLSLPVTPGEPASISCQASQELVHMNRNTYLHWYQQKPGQAPRLLIYKVSNRFPGVPDRFSGSGSGTDFTLKISRVEAEDVGVYYCAQGTSVPFTFGQGTKLEIK
B19: dBBDu183H G100hR/dBBDu072L (antibody, name in Kabat numbering, V domains shown)
VH: QVQLVESGGGLVQPGRSLRLSCAASGFTFSNAWMHWVRQAPGKGLEWVAQIKDKGNAYAAYYAPSVKGRFTISRDDSKNSIYLQMNSLKTEDTAVYYCHYVHYASASTVLPAFRVDAWGQGTTVTVSS
VL: DIVMTQSPLSLPVTPGEPASISCQASQELVHMNRNTYLHWYQQKPGQAPRLLIYKVSNRFPGVPDRFSGSGSGTDFTLKISRVEAEDVGVYYCAQGTSVPFTFGQGTKLEIK
B20: dBBDu183H G100hE/dBBDu072L (antibody, name in Kabat numbering, V domains shown)
VH: QVQLVESGGGLVQPGRSLRLSCAASGFTFSNAWMHWVRQAPGKGLEWVAQIKDKGNAYAAYYAPSVKGRFTISRDDSKNSIYLQMNSLKTEDTAVYYCHYVHYASASTVLPAFEVDAWGQGTTVTVSS
VL: DIVMTQSPLSLPVTPGEPASISCQASQELVHMNRNTYLHWYQQKPGQAPRLLIYKVSNRFPGVPDRFSGSGSGTDFTLKISRVEAEDVGVYYCAQGTSVPFTFGQGTKLEIK

In the test the target is T1, Human CD3eg linker (human).
T1 construct: single-chain construct; also called recombinant human CD3
T1 chain: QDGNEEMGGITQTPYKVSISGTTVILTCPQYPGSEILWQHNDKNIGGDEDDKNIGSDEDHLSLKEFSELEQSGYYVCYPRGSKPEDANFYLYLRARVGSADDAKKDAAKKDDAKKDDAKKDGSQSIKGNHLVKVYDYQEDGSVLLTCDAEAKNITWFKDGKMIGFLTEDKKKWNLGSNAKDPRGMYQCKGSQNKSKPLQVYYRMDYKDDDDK
Nature of the test: SPR, vs unmutated H183/L072. Background: Surface plasmon resonance follows binding to a sensor surface in real time, without labels.
Consider B1, for which the “fold change of affinity” value was determined as 1 fold.

On to B2, for which the “fold change of affinity” value came to 2.3 fold.

As for B3, the “fold change of affinity” value was determined as 1 fold.

For B4, the “fold change of affinity” value was found to be 1 fold.

As for B5, the “fold change of affinity” value came to 1 fold.

In the case of B6, the “fold change of affinity” value stood at 1.5 fold.

For B7, the “fold change of affinity” value was 3.4 fold.

Regarding B8, the “fold change of affinity” value came out at 1.1 fold.

Consider B9, for which the “fold change of affinity” value came out at 0.5 fold.

On to B10, for which the “fold change of affinity” value is 0 fold.

Consider B11, for which the “fold change of affinity” value turned out to be 0 fold.

Consider B12, for which the “fold change of affinity” value came to 0.8 fold.

As for B13, the “fold change of affinity” value is 0.3 fold.

Regarding B14, the “fold change of affinity” value was determined as 1.2 fold.

As to B15, the “fold change of affinity” value is 1 fold.

For the molecule B16, the “fold change of affinity” value was 1 fold.

With B17, the “fold change of affinity” value was found to be 0.4 fold.

Regarding B18, the “fold change of affinity” value came out at 0.4 fold.

As to B19, the “fold change of affinity” value was 0.4 fold.

Turning to B20, the “fold change of affinity” value was 0.5 fold.
